Starred links: 1 amine or outer side, 2 acyl side, 3 side chain; linkers in the order of their positions; H or OH if unused. Non-standard residues stand in square brackets, D forms with d. Groups on a side chain read outwards from the residue. Primed or numbered codes have the meaning given here. No end group written: not given here. *: point of attachment. alkynylpropionyl = alkynylpropionyl (alkyne-ethyl) group on the N-terminal spacer, reacted by CuAAC with the azide; PEG4′ = PEGylated amino acid with four EG (ethylene glycol) repeats; C16 diacid = O=C(O)CCCCCCCCCCCCCCC(=O)*; γGlu = O=C(O)[C@H](CCC(=O)[*:2])N[*:1]; Palmitoyl = CCCCCCCCCCCCCCCC(=O)*; Azidoacetyl = [N-]=[N+]=NCC(=O)*; Aib = CC(C)(N)C(=O)O
How the values were obtained:
[1] = in vivo; cited from earlier work
INS-1 cells = test: Alamar Blue cell viability / proliferation of INS-1 cells; type: cell-based, rat; conditions: 30 mM glucose, 100 nM, 24, 48 and 72 hours, compared with liraglutide, FIG. 19
Description: The cultured INS-1 cells were seeded at a density of 2×10^4 cells/well into 96-well plate in culture medium containing 10% […] bovine serum. After 48 hours, the cells were further incubated for another 24 hours for serum starvation. […] The cells cultured in normal medium being used as a control.
After being incubated for 24, 48 and 72 hours, the cell viability was then determined by Alamar Blue cell viability reagent kit (Invitrogen) in accordance with the manufacturer's instruction.
The cell proliferation ratio (see FIG. 19) was a ratio of the cell viability at multiple time points compared to 0 hour.

GLP-1 receptor = target: T1, GLP-1 receptor (Rattus norvegicus, UniProt P32301); test: GLP-1R-mediated cAMP generation in INS-1 cells (cAMP ELISA kit); type: cell-based; conditions: 100 nM, 2.5 mM glucose, 20 min, 37° C., FIG. 17
T1 construct: endogenous in cells; host or cells: rat INS-1 cells
T1 sequence (P32301 22-463): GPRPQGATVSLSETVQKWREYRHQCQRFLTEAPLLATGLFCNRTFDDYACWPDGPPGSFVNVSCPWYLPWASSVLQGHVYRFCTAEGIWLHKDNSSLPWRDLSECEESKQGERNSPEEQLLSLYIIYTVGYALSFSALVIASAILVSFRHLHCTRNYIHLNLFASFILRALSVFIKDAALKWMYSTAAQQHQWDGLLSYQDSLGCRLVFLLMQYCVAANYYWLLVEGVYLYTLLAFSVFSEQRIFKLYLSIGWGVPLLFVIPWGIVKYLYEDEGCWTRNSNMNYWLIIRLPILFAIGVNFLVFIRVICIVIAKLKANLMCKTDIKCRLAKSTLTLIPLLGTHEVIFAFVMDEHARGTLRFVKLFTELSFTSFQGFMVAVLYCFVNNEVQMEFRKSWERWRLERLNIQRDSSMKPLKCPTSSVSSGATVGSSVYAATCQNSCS
Description: Briefly, on day one, 2×10^5 INS-1 cells were plated in each well of a 24-well plate (ThermoFisher Scientific, Waltham, USA) with 500 μL/well culture medium. […] 100 nM liraglutide, as a positive control for cAMP generation, was added to control wells and incubated for 20 min at 37° C. Glucose at lower concentration (2.5 mM) was used as a negative control, and glucose at higher concentration (16 mM) was used as a control for glucose-induced cAMP generation. After 20 minutes of incubation, the medium was aspirated and 200 μl of 0.1N HCl was added to each well. The cells were scraped off from the surface by cell scraper and subjected to centrifugation at 1,000×g for 10 min at 4° C. The supernatant was transferred to new tubes and used for experiment in a 96-well plate. Cyclic AMP levels in the cells were measured at wavelength of 420 nm using SpectraMax M2 microplate reader (Molecular devices, San Jose, USA).

caspase-3 = test: Western blot of activated caspase-3 expression in INS-1 cells; type: cell-based, rat; conditions: xx mM glucose, normalized against β-actin, FIGS. 18A/18B
Excerpt: Cleaved caspase-3 is a key executor in the apoptotic process. In this example, the expression of caspase-3 was detected using western blot analysis.
For the immunoblot analysis, proteins were separated using SDS-PAGE, and then transferred onto a polyvinylidene fluoride (PVDF) membrane. The membrane was probed using antibodies against caspase-3 (Cell Signaling Technology, Danvers, USA), followed by horseradish peroxidase-(HRP) conjugated secondary antibodies (Epitomics, Burlingame, USA). The membrane was visualized using an enhanced chemiluminescence system (GE Healthcare Life Sciences, Buckinghamshire, USA). The levels of protein expression were normalized against β-actin expression.

| Substance | serum half-life [1] | cell viability (cell proliferation ratio vs 0 hour) (INS-1 cells) | cellular cAMP level (GLP-1 receptor) | expression level of caspase-3 (caspase-3) |
| --- | --- | --- | --- | --- |
| albiglutide | 96 to 170 h |  |  |  |
| GLP-1-Aib^8-EG4-2E-2FA-C16: Aib-substituted GLP-1 agonist having an azide group coupled via CuAAC to alkyne-EG4-2E-2FA-C16 (Example 10) (peptide H[Aib]EGTFTSDVSSYLEGQAAK([γGlu-Azidoacetyl])LEFIAWLVRGRG; chain alkynylpropionyl-[PEG4′]K([γGlu-Palmitoyl])[PEG4′]K([γGlu-Palmitoyl])-OMe; also: triazole at chain A 20 to a chain's N-terminus) |  | significantly improved | elicited the expected rise in cellular cAMP level | can effectively reduce the expression level of caspase-3 |
| GLP-1-Aib^8-EG4-2E-2FA-C16-acid: Aib-substituted GLP-1 agonist having an azide group coupled via CuAAC to alkyne-EG4-2E-2FA-C16-acid (Example 11) (peptide H[Aib]EGTFTSDVSSYLEGQAAK([γGlu-Azidoacetyl])LEFIAWLVRGRG; chain alkynylpropionyl-[PEG4′]K([γGlu-C16 diacid])[PEG4′]K([γGlu-C16 diacid])-OMe; also: triazole at chain A 20 to a chain's N-terminus) |  | significantly improved | elicited the expected rise in cellular cAMP level |  |

Reference: patent publication US10993986B2, “Pharmaceutical constructs with enhanced binding affinity with albumin” (Immunwork Inc., priority 2017, dated 2021)
